Substrate: O=CO
Experiment: purified protein, by the assay type

B1: Desulfovibrio vulgaris Hildenborough (DvH) FDH2, recombinant Strep-tag II-tagged (FDH2^Rec), large subunit DVU2482 SEQ ID NO: 31, small subunit DVU2481 SEQ ID … (protein)
chain: AELKIAKAKVTPSVCCFCAVGCGLLVYTDTQTGRSINIEGDPDHPTNEGTLCPKGASIWQTTERSKRVTKVLYRAPGAAAWEEKSWDWALPRIARKIKETRDATFELTNDKGQTVNRTRGIASVGSAAVDNEEGWLMQAMMRALGLVYIESHARIUHSSTVGALAESYGRGAMTNHWIDLKNSDVILIMGSNAAENHPISFKWVTRAQERGATLIHVDPRFTRTSAKADIHAHIRSGTDIAFFGGLIRYIMENDLFFRQYVVDYTNASYIVGADYGFADGLFTGFDAEKGTYNTKKWAFAADENGMTLKDPTLNDPRCVFQLMKAHYARYDRKTVSDVTGISEEQLATLWSTFASTGKPDRAGTILYAMGQCQHTVGVQNIRALSMIQLLLGNIGIAGGGVNALRGESNVQGTTDISLLCDNLSGYLPTPKASWATFDDYVKGTTPVDKDPKSANWWSNRGKYLASYMKSVYPTASHQDGYLWHPKVDDGKITDYSWLQIFERMSKGGFKGAFVWGQNPCAGGANAGKNRKAMETLDWMVVVNLFENESSLFWKGPGVDPAKVKTEVFFLPACMSVEKGGSIANSGRWLQWREPGPKPMGDSRSDGDIVLDLYDEIRKLYREEKGAFPEPVLALDTDYRTDGKYDHHKVAKTLNGKFLTDVTIGDKTYKAGQQVPGFAMLQADGSTTSGCWIFTGCYTDAGNMMARRDRTQTPEQAAIGLFPNWSYAWPANRRILYNRAAVDMTGKPFDPKRAVIAWNGEKWVGDVPDGGWKPGEKLPFIMIREGRGQLFGPGRVDGPFPEHYEPFESPLESHPFSKQRVNPTALAFSHEPKAVRDKRYPFICTTYRVTEQWQSGTMTRNTGWLKEMQPEGFCEISRELAKELGIANGDAVVLESLRGKVQVVAIVTPRLKPFKVMGEVMHEVGIPWQFGWGQHVGKGDSANLLSPSVGDPNTGIPETKVFMVNLRKA
Km (other: 2 mM BV (anaerobic), full progress curve, calculated from kcat and kcat/Km, pH 8.0, 25.0 °C): 2.1 ± 0.1 µM | Km (other: BV (2 mM), anaerobic, initial velocities, 3 replicates, pH 8.0, 25 °C): 3.5 ± 0.9 µM | Km (other: BV (20 mM), anaerobic, initial velocities, 3 replicates, pH 8.0, 25 °C): 7 ± 3 µM | Km (other: DCPIP (air), full progress curve, calculated from kcat and kcat/Km, pH 8.0): 4.5 ± 0.4 µM | Km (other: DCPIP (anaerobic), full progress curve, calculated from kcat and kcat/Km, pH 8.0): 3.7 ± 0.3 µM | Km (other: PES/DCPIP, air, initial velocities, 10 replicates, pH 8.0): 7 ± 1 µM | Km (other: PES/DCPIP, anaerobic, initial velocities, 5 replicates, pH 8.0): 5.5 ± 0.5 µM

Source: US20250357519A1, “APPLICATIONS OF O2-INSENSITIVE FORMATE DEHYDROGENASE” (UNIVERSITY OF MARYLAND, BALTIMORE, priority 2022, published 2025)
